In patent publication US9187525B2, “Methods of treating ophthalmic diseases using NPR-B agonists” (Shire Orphan Therapies GmbH, dated 2015):
Values belong to the binder of their own block, whether it stands above or below them. Numbered stars: 1 amine (or outer) side, 2 acyl side, 3 side chain; on linkers, the order of the positions; unused ones are H or OH. Square brackets hold non-standard residues; d marks the D form. Ends that are not written are not given here. * marks the point of attachment. 6988 = 2-pentyl-benzooxazole-5-carboxylic acid, CCCCCc1nc2cc(C(=O)*)ccc2o1; 3421 = 3-Amino-4-hydroxy-benzoic acid, O=C(c1ccc(O[*:3])c(N[*:1])c1)[*:2]; 4703 = 3-(4-bromo-phenyl)-propionic acid, O=C(CCc1ccc(Br)cc1)*; 4734 = (4-butoxy-phenyl)-acetic acid, CCCCOc1ccc(CC(=O)*)cc1; Pro(trans-4-NH2) = O=C([C@@H]1C[C@@H](N[*:3])CN1[*:1])[*:2]; Sni = (S)-nipecotic acid, O=C([C@H]1CCCN([*:1])C1)[*:2]; 1695 = Piperidine-1,2-dicarboxylic acid 1-benzyl ester; Butanoyl(4-(4-MeO-phenyl)) = COc1ccc(CCCC(=O)*)cc1; Phe(3,4-Cl2) = N[C@@H](Cc1ccc(Cl)c(Cl)c1)C(=O)O; Pbf = Cc1c(C)c(S(=O)(=O)*)c(C)c2c1OC(C)(C)C2; Phe(3-Cl) = N[C@@H](Cc1cccc(Cl)c1)C(=O)O; Butanoyl(4-cHex) = O=C(CCCC1CCCCC1)*; Pentanoyl(5-Ph) = O=C(CCCCc1ccccc1)*; Butanoyl(4-Ph) = O=C(CCCc1ccccc1)*; NMeR = CN[C@@H](CCCNC(=N)N)C(=O)O; dDap(Me2) = CN(C)C[C@@H](N)C(=O)O; Hyp = O=C(O)[C@@H]1C[C@@H](O)CN1; NMeF = CN[C@@H](Cc1ccccc1)C(=O)O; NMeI = CC[C@H](C)[C@H](NC)C(=O)O; tBuAla = CC(C)(C)C[C@H](N)C(=O)O; 3Thi = N[C@@H](Cc1ccsc1)C(=O)O; NMeD = CN[C@@H](CC(=O)O)C(=O)O; NMeL = CN[C@@H](CC(C)C)C(=O)O; Octanoyl = CCCCCCCC(=O)*; Api = NC1(C(=O)O)CCNCC1; Che = not defined here; Hexanoyl = CCCCCC(=O)*; leu = not defined here; Occ = octanoic acid

Target: T1, natriuretic peptide receptor-B (human)
T1 chain: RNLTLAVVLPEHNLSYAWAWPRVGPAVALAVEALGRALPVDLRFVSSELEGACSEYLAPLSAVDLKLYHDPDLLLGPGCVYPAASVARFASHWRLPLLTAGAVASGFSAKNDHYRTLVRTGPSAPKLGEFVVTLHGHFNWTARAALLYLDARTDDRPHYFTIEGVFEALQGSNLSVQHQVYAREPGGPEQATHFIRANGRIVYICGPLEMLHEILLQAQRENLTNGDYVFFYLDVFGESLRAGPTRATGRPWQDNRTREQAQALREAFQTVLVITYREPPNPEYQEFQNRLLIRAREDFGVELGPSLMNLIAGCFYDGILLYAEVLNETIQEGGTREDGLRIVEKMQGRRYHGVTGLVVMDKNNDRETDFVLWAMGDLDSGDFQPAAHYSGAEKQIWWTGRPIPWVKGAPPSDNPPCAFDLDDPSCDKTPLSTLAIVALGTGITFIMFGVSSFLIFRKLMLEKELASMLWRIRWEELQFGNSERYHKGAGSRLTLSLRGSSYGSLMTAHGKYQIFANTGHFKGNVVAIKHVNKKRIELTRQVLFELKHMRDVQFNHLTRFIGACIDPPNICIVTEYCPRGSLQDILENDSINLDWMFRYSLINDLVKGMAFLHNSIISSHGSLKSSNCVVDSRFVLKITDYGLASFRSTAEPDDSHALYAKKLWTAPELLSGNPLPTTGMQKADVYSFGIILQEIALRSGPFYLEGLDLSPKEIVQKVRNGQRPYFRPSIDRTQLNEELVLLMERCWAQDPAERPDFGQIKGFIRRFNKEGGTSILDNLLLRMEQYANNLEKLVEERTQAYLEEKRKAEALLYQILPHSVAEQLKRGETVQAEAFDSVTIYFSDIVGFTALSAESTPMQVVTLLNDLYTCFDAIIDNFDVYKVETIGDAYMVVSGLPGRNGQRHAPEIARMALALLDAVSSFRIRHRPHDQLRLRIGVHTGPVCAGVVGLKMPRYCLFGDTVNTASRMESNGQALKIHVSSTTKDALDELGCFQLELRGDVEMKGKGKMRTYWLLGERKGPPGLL
Assay: cell-based or functional assay

Binder: 1695-[Sni]F[dL]L[Hyp][NMeL]DRI-NH2 (not fully specified; printed as 1695-Sni-Phe-leu-Leu-Hyp-Nml-Asp-Arg-Ile-NH2) [JAL-1617]
- EC50 group, cGMP in GTM-3 cells: ≤ 15 µM

B3: JAL-1616 (peptide)
peptide: Hexanoyl-[3421][Sni]F[dL]L[Hyp][NMeL]DRI-NH2
modifications: not fully specified; printed as Hex-(3421)-Sni-Phe-leu-Leu-Hyp-Nml-Asp-Arg-Ile-NH2
- EC50 group, cGMP in GTM-3 cells: ≤ 5 µM

Binder: 4734-[Sni]F[dL]L[Hyp][NMeL]DRI-NH2 [JAL-1609]
- EC50 group, cGMP in GTM-3 cells: ≤ 5 µM

Binder: [Occ][Sni]F[dDap(Me2)]L[Hyp][NMeL]D[NMeR]I-NH2 [JAL-1576]
- EC50 group, cGMP in GTM-3 cells: ≤ 1 µM

Binder: [Occ][Sni][Pbf][leu]L[Hyp][NMeL]DRI-NH2 (reading uncertain; also: printed as Occ-Sni-Pbf-leu-Leu-Hyp-Nml-Asp-Arg-Ile-NH2) [JAL-1619]
- EC50 group, cGMP in GTM-3 cells: ≤ 1 µM

Binder: {Pentanoyl(5-Ph)}-[Sni]F[dL]L[Hyp][NMeL]DRI-NH2 [JAL-1606]
- EC50 group, cGMP in GTM-3 cells: ≤ 1 µM

Binder: [Occ][Sni]F[Api]L[Hyp][NMeL]DP[Che] (reading uncertain; also: printed as Occ-Sni-Phe-Apc-Leu-Hyp-Nml-Asp-Pro-Che) [JAL-1601]
- EC50 group, cGMP in GTM-3 cells: ≤ 5 µM

B4: JAL-1596 (peptide)
peptide: Octanoyl-[Sni]FLL[Hyp]IDP[Che]
modifications: not fully specified (some residues); printed as Occ-Sni-Phe-leu-Leu-Hyp-Ile-Asp-Pro-Che; reading uncertain
- EC50 group, cGMP in GTM-3 cells: ≤ 5 µM

Binder: [Occ][Sni][NMeF][dDap(Me2)]L[Hyp][NMeL]DRI-NH2 [JAL-1579]
- EC50 group, cGMP in GTM-3 cells: ≤ 1 µM

Binder: [Occ][Sni]F[dDap(Me2)]L[Hyp][NMeL]DPI-NH2 [JAL-1580]
- EC50 group, cGMP in GTM-3 cells: ≤ 1 µM

Binder: [Occ][Sni][NMeF][dL]L[Hyp][NMeL]DRI-NH2 [JAL-1573]
- EC50 group, cGMP in GTM-3 cells: ≤ 1 µM

Binder: [Occ][Sni]F[dL][NMeL][Hyp][NMeL]DRI-NH2 [JAL-1572]
- EC50 group, cGMP in GTM-3 cells: ≤ 15 µM

B5: JAL-1594 (peptide)
peptide: Octanoyl-[Sni]FLL[Hyp][NMeL]VP[Che]
modifications: not fully specified (some residues); printed as Occ-Sni-Phe-leu-Leu-Hyp-Nml-Val-Pro-Che; reading uncertain
- EC50 group, cGMP in GTM-3 cells: ≤ 5 µM

Binder: {Butanoyl(4-cHex)}-[dP]FGLKLDRI-NH2 [JAL-0695]
- EC50 group, cGMP in GTM-3 cells: ≤ 15 µM

B7: JAL-1574 (peptide)
peptide: [Occ]XFXLXXDRI-NH2
modifications: not fully specified (residues 2, 4, 6, 7); printed as Occ-Sni-Phe-nml-Leu-Hyp-Nml-Asp-Arg-Ile-NH2
- EC50 group, cGMP in GTM-3 cells: ≤ 15 µM

Binder: [Occ][Sni]FGL[Hyp][NMeL]DP[Che] (reading uncertain; also: printed as Occ-Sni-Phe-Gly-Leu-Hyp-Nml-Asp-Pro-Che) [JAL-1600]
- EC50 group, cGMP in GTM-3 cells: ≤ 5 µM

Binder: {Butanoyl(4-Ph)}-[Sni]F[dL]L[Hyp][NMeL]DRI-NH2 [JAL-1605]
- EC50 group, cGMP in GTM-3 cells: ≤ 1 µM

B8: JAL-1595 (peptide)
peptide: Octanoyl-[Sni]FLL[Hyp][tBuAla]DP[Che]
modifications: not fully specified (some residues); printed as Occ-Sni-Phe-leu-Leu-Hyp-Npg-Asp-Pro-Che; reading uncertain
- EC50 group, cGMP in GTM-3 cells: ≤ 1 µM

Binder: [Occ][Sni]F[Api]L[Pro(trans-4-NH2)][NMeL]DP[Che] (reading uncertain; also: printed as Occ-Sni-Phe-Apc-Leu-Tap-Nml-Asp-Pro-Che) [JAL-1602]
- EC50 group, cGMP in GTM-3 cells: ≤ 1 µM

Binder: {Butanoyl(4-(4-MeO-phenyl))}-[Sni]F[dL]L[Hyp][NMeL]DRI-NH2 [JAL-1607]
- EC50 group, cGMP in GTM-3 cells: ≤ 15 µM

B9: JAL-1604 (peptide)
peptide: [Occ][Sni]F[dDap(Me2)]L[Hyp][NMeL]DP[Che]
modifications: reading uncertain; also: printed as Occ-Sni-Phe-dap(Me2)-Leu-Hyp-Nml-Asp-Pro-Che
- EC50 group, cGMP in GTM-3 cells: ≤ 1 µM

Results, then the binder that gave them:

- EC50 group, cGMP in GTM-3 cells: ≤ 1 µM
Binder: [Occ][Sni][3Thi][leu]L[Hyp][NMeL]DRI-NH2 (reading uncertain; also: printed as Occ-Sni-Thk-leu-Leu-Hyp-Nml-Asp-Arg-Ile-NH2) [JAL-1620]

- EC50 group, cGMP in GTM-3 cells: ≤ 5 µM
Binder: 4703-[Sni]F[dL]L[Hyp][NMeL]DRI-NH2 [JAL-1612]

- EC50 group, cGMP in GTM-3 cells: ≤ 1 µM
B1: JAL-1597 (peptide)
peptide: Octanoyl-[Sni][NMeF][dL]L[Hyp][NMeL]DP[Che]
modifications: not fully specified; printed as Occ-Sni-Nmf-leu-Leu-Hyp-Nml-Asp-Pro-Che; reading uncertain

- EC50 group, cGMP in GTM-3 cells: ≤ 15 µM
Binder: Octanoyl-[dP]FGLKLDRI-NH2 [JAL-0694]

- EC50 group, cGMP in GTM-3 cells: ≤ 15 µM
Binder: [Occ][Sni]F[dDap(Me2)]L[Hyp][NMeL]DR[NMeI]-NH2 [JAL-1575]

- EC50 group, cGMP in GTM-3 cells: ≤ 15 µM
B2: JAL-1598 (peptide)
peptide: Octanoyl-[Sni]F[dL][NMeL][Hyp][NMeL]DP[Che]
modifications: not fully specified; printed as Occ-Sni-Phe-leu-Nml-Hyp-Nml-Asp-Pro-Che; reading uncertain

- EC50 group, cGMP in GTM-3 cells: ≤ 15 µM
Binder: [Occ][Sni]F[dDap(Me2)]L[Hyp][NMeL][NMeD]RI-NH2 [JAL-1577]

- EC50 group, cGMP in GTM-3 cells: ≤ 15 µM
Binder: 6988-[Sni]F[dL]L[Hyp][NMeL]DRI-NH2 [JAL-1615]

- EC50 group, cGMP in GTM-3 cells: ≤ 5 µM
Binder: [Occ][Sni]F[dDap(Me2)][NMeL][Hyp][NMeL]DRI-NH2 [JAL-1578]

- EC50 group, cGMP in GTM-3 cells: ≤ 15 µM
Binder: {Pentanoyl(5-Ph)}-[dP]FGLKLDRI-NH2 [JAL-0696]

- EC50 group, cGMP in GTM-3 cells: ≤ 1 µM
Binder: Octanoyl-[Sni][Phe(3-Cl)][dL]L[Hyp][NMeL]DRI-NH2 (not fully specified; printed as Occ-Sni-Mcf-leu-Leu-Hyp-Nml-Asp-Arg-Ile-NH2) [JAL-1618]

- EC50 group, cGMP in GTM-3 cells: ≤ 1 µM
B6: JAL-1603 (peptide)
peptide: [Occ][Sni]F[dDap(Me2)]L[Pro(trans-4-NH2)][NMeL]DP[Che]
modifications: reading uncertain; also: printed as Occ-Sni-Phe-dap(Me2)-Leu-Tap-Nml-Asp-Pro-Che

- EC50 group, cGMP in GTM-3 cells: ≤ 1 µM
B10: JAL-1599 (peptide)
peptide: Octanoyl-[Sni][Phe(3,4-Cl2)][dL]L[Hyp][NMeL]DP[Che]
modifications: not fully specified; printed as Occ-Sni-Eaa-leu-Leu-Hyp-Nml-Asp-Pro-Che; reading uncertain
